± gives the uncertainty stated by the source.
test: amyloid nucleation score (Sup35N fusion, yeast selection) (log enrichment); library NNK2; higher = more nucleation; inactive = no reads after selection
Summary of the method: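 Libraries of peptides of 20 random codons fused to Sup35N were expressed in psi-negative yeast and induced 24 hours with 100 μM copper sulfate. Selection was 7 days at 30°C on medium lacking adenine and uracil, and plasmid inserts were Illumina-sequenced before and after selection. Nucleation score is the DiMSum log enrichment of output over input reads, centred on the mode score of non-aggregating sequences, and sequences with under 100 input reads were left out.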

Question: For FFTVFLQDIMVWRDQWIYPQ, which amyloid nucleation score is on record?
Answer: inactive

Question: Which amyloid nucleation score does the source give for GIYFIYLSM here?
Answer: 5.918 ± 0.059

Question: With VLPRGD as the substance, how does the amyloid nucleation score read?
Answer: 0.125 ± 0.4

Question: For STVGEVYVGLALMDVWGMEW, which amyloid nucleation score is on record?
Answer: 0.559 ± 0.32

Question: Which amyloid nucleation score does the source give for RELRQPNK here?
Answer: inactive

Question: For STNVMLLSFSHMYHSYVLLG, which amyloid nucleation score is on record?
Answer: -0.261 ± 0.63

Question: For NSLCLLNRQ, which amyloid nucleation score is on record?
Answer: 0.241 ± 0.54

Question: Which amyloid nucleation score does the source give for VVYFFFCLDMVMTGF here?
Answer: 4.65 ± 0.087

Question: For WDIRVVVSVRCNMQVYLFVC, which amyloid nucleation score is on record?
Answer: 0.581 ± 0.51

Question: Which amyloid nucleation score does the source give for GEDTFYSISCYVQMLL here?
Answer: 1.49 ± 0.08

Question: With TMGKCITIGPAFIHNT as the substance, how does the amyloid nucleation score read?
Answer: 1.51 ± 0.32

Question: With CNGRVKAYVSQNYVSEYGVL as the substance, how does the amyloid nucleation score read?
Answer: -0.1 ± 0.2

Question: Which amyloid nucleation score does the source give for TRMDNAY here?
Answer: -0.132 ± 0.65

Question: Which amyloid nucleation score does the source give for DIMYPYWMVR here?
Answer: -0.667 ± 0.76

Question: With SSWKCIIYNPQCEVPTGEQE as the substance, how does the amyloid nucleation score read?
Answer: -0.289 ± 0.49

Question: For YLMRVRYSLCGLVVSVVAQD, which amyloid nucleation score is on record?
Answer: 0.856 ± 0.34

Question: With PIKVDEVCGCRRRWFGDWDS as the substance, how does the amyloid nucleation score read?
Answer: -0.146 ± 1

Question: With DSLKFSLRLVHLPLPIYGCC as the substance, how does the amyloid nucleation score read?
Answer: 1.5 ± 0.43

Question: With GFPLWSAGNCFALNAGRDAG as the substance, how does the amyloid nucleation score read?
Answer: 0.777 ± 0.19

Question: With NQNIVVAVEVQVWFICNFVH as the substance, how does the amyloid nucleation score read?
Answer: 3.08 ± 0.1

Question: Which amyloid nucleation score does the source give for WWKAGFSCDTEMSRRPHTLV here?
Answer: -0.168 ± 1.1

Question: For LSSTYRC, which amyloid nucleation score is on record?
Answer: -0.24 ± 0.39

Question: Which amyloid nucleation score does the source give for AISSEGELLAVDFWNSNLDP here?
Answer: -0.509 ± 0.23

Question: Which amyloid nucleation score does the source give for YKRIHSSKFRPDYSHMV here?
Answer: -0.403 ± 1

Question: For CCELAPWFFTI, which amyloid nucleation score is on record?
Answer: 0.068 ± 0.32

Question: With HYRGSENGVEPSFLYGVSLL as the substance, how does the amyloid nucleation score read?
Answer: 0.079 ± 0.49

Question: With LDYFFAAL as the substance, how does the amyloid nucleation score read?
Answer: inactive

Question: With KRVSASDISSLYADVRIKE as the substance, how does the amyloid nucleation score read?
Answer: -0.852 ± 0.76

Question: With MVNYDDMANGS as the substance, how does the amyloid nucleation score read?
Answer: 0.465 ± 0.8

Question: With CKYVYFRPTRASSSWHVIFL as the substance, how does the amyloid nucleation score read?
Answer: 2.93 ± 0.076

Question: Which amyloid nucleation score does the source give for NRKFHIMTFC here?
Answer: 0.415 ± 0.41

Question: With KTFMCSFSQHVKGSGVFLTS as the substance, how does the amyloid nucleation score read?
Answer: -0.346 ± 0.49

Question: For PGEGMSQEERLMLCRCVWVT, which amyloid nucleation score is on record?
Answer: 0.874 ± 0.52

Question: Which amyloid nucleation score does the source give for GILYLSLYDFCV here?
Answer: -0.763 ± 1

Question: Which amyloid nucleation score does the source give for LHGSGMENALSVPDMEQFPA here?
Answer: -0.159 ± 0.63

Question: With NYFLY as the substance, how does the amyloid nucleation score read?
Answer: 7.28 ± 0.086

Question: With YCNIPNRPVSKALRNHLS as the substance, how does the amyloid nucleation score read?
Answer: inactive

Question: Which amyloid nucleation score does the source give for GNLSVTAILWLMRYECLNLS here?
Answer: -0.431 ± 0.64

Question: With SVCMRIKFWSPAPDAEHEKA as the substance, how does the amyloid nucleation score read?
Answer: 6.614 ± 0.056

Question: With ITSLRSLRYFHVEFVSRLWL as the substance, how does the amyloid nucleation score read?
Answer: 0.554 ± 0.81

Question: Which amyloid nucleation score does the source give for TYNKYK here?
Answer: -1.08 ± 0.78

Question: For AKDEERISNVVGLDCDLGVL, which amyloid nucleation score is on record?
Answer: 0.057 ± 0.42

Question: For YMDSKSNLARTFVRVCGLLG, which amyloid nucleation score is on record?
Answer: 0.097 ± 1.1

Question: For FNRVDDMCGPWCENWLNGQT, which amyloid nucleation score is on record?
Answer: -1.23 ± 1.1

Question: With RYFDWYNI as the substance, how does the amyloid nucleation score read?
Answer: -1.28 ± 0.45

Question: For CTTFSFADIEFVMKRTRAIL, which amyloid nucleation score is on record?
Answer: inactive

Question: With SSCIWLVFKCSWFGF as the substance, how does the amyloid nucleation score read?
Answer: 4.421 ± 0.029

Question: Which amyloid nucleation score does the source give for GRIVRSVLSSIVCILMSYWM here?
Answer: 0.821 ± 0.31

Question: For VLDSWRR, which amyloid nucleation score is on record?
Answer: -0.963 ± 1.1

Question: With DNEMRYGDRSSVFI as the substance, how does the amyloid nucleation score read?
Answer: 1.32 ± 0.24

Question: For QSHTYRL, which amyloid nucleation score is on record?
Answer: 1.55 ± 0.25

Question: Which amyloid nucleation score does the source give for MLRQYCASFALVRCLNVTDR here?
Answer: 3.12 ± 0.13

Question: For LGYCSSSILCPCCHKILFDA, which amyloid nucleation score is on record?
Answer: -0.521 ± 0.21

Question: For LVACMASDITNNMSRLYHLI, which amyloid nucleation score is on record?
Answer: -1.79 ± 1.1

Question: With YTGYGTWNLNIRNACNRVSW as the substance, how does the amyloid nucleation score read?
Answer: inactive

Question: Which amyloid nucleation score does the source give for MRSYIQFVFCGDCRFFNWVI here?
Answer: 6.298 ± 0.05

Question: With LSEMYTFCEDSRAFTVYWTF as the substance, how does the amyloid nucleation score read?
Answer: -1.02 ± 0.45

Question: With EVRWASAPRNCCR as the substance, how does the amyloid nucleation score read?
Answer: 0.79 ± 0.26

Question: Which amyloid nucleation score does the source give for KCWYRH here?
Answer: 1.39 ± 0.1

Question: Which amyloid nucleation score does the source give for GGNFYGGEYDMGGGSIRHYG here?
Answer: inactive

Question: For AFLVYRKNNIPQYRVKVVDM, which amyloid nucleation score is on record?
Answer: -0.225 ± 0.63

Question: With HIGHSWIGSALDTLAYEGYY as the substance, how does the amyloid nucleation score read?
Answer: -0.49 ± 0.76

Question: With YINVALWIMSFSGSVWGKEP as the substance, how does the amyloid nucleation score read?
Answer: 4.55 ± 0.064

Question: With NRSAYLGRMVSI as the substance, how does the amyloid nucleation score read?
Answer: 0.164 ± 0.44

Question: For DGVSAFVCTFRDAVVRSAME, which amyloid nucleation score is on record?
Answer: 4.29 ± 0.045

Question: Which amyloid nucleation score does the source give for IVEVVFRSIPIAMDSCCCSN here?
Answer: -1.14 ± 0.28

Question: With RLSSILYYVNHFS as the substance, how does the amyloid nucleation score read?
Answer: -0.045 ± 0.41

Question: Which amyloid nucleation score does the source give for AHSATINA here?
Answer: -0.113 ± 0.44

Question: For VNNNLLNASLAMVSM, which amyloid nucleation score is on record?
Answer: inactive

Question: For VSPLALDQVTVSMVAMGIEG, which amyloid nucleation score is on record?
Answer: 0.999 ± 0.29

Question: For VYSLFSYLRDTLVV, which amyloid nucleation score is on record?
Answer: -0.534 ± 0.74

Question: For FYAVHLCLTYALGCRLVTSC, which amyloid nucleation score is on record?
Answer: -0.932 ± 0.76

Question: For LGEYNINLMDGWEGRCRPVR, which amyloid nucleation score is on record?
Answer: 0.728 ± 0.43

Question: For DIRSRINMLRYTFF, which amyloid nucleation score is on record?
Answer: inactive

Question: With MFAGLIVLCLVWVYRRC as the substance, how does the amyloid nucleation score read?
Answer: 4.89 ± 0.061

Question: With DQVLHCSLDQSVGGSDQL as the substance, how does the amyloid nucleation score read?
Answer: inactive

Question: With FLNWCISKLR as the substance, how does the amyloid nucleation score read?
Answer: -0.735 ± 1

Question: For ARLRC, which amyloid nucleation score is on record?
Answer: 0.001 ± 0.28

Question: With NSLNI as the substance, how does the amyloid nucleation score read?
Answer: -0.127 ± 1.1

Question: With HSAYSWFLKSSNRRSWANSS as the substance, how does the amyloid nucleation score read?
Answer: -0.666 ± 0.79

Question: With LERECVENDGLGWSRLEYVR as the substance, how does the amyloid nucleation score read?
Answer: 0.42 ± 0.33

Question: For HATVHSSRCHSYHPGL, which amyloid nucleation score is on record?
Answer: 6.707 ± 0.054

Question: For NFYSYIWLLL, which amyloid nucleation score is on record?
Answer: 6.38 ± 0.064

Question: Which amyloid nucleation score does the source give for NLHYHSSTSSTRNFKYGCAF here?
Answer: inactive

Question: With CWFSTTGYDPLEPSFNLVLR as the substance, how does the amyloid nucleation score read?
Answer: -1.58 ± 0.54

Question: Which amyloid nucleation score does the source give for LTVFTPR here?
Answer: -0.62 ± 0.37
